Source: US7098310B1, “Heterodimers of retinoid X receptors (RXRS) and other steroid hormone receptors” (Ligand Pharmaceuticals, priority 1991, dated 2006)

T1: retinoic acid receptor RARα (UniProt P10276 1-462, limits assumed)
T1 construct: mature; In vitro translated
T1 sequence (looked up): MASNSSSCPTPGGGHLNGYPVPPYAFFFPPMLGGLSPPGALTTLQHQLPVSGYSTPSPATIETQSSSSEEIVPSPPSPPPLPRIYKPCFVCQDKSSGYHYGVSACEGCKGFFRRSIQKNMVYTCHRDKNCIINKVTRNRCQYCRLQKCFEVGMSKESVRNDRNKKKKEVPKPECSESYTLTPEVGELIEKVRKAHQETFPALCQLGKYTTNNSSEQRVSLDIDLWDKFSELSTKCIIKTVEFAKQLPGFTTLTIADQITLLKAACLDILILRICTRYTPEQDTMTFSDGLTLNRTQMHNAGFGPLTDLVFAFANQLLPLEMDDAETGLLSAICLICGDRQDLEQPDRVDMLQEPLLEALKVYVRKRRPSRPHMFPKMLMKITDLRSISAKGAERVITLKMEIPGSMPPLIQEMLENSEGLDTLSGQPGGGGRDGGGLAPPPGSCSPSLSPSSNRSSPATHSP

T2: retinoic acid receptor RARβ (UniProt P10826 1-455, limits assumed)
T2 construct: mature; In vitro translated
T2 sequence (looked up): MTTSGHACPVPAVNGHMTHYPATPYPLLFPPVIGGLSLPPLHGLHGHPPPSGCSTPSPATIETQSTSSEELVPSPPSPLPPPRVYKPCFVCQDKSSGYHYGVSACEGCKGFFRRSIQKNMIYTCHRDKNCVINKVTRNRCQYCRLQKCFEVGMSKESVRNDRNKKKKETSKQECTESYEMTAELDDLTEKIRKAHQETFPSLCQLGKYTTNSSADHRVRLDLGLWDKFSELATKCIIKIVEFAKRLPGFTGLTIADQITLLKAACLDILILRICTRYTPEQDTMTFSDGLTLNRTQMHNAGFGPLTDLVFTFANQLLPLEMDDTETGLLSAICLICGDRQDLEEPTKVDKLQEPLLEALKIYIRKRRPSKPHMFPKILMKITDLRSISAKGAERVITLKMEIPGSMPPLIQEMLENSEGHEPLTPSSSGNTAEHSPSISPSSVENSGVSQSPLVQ

T3: retinoic acid receptor RARγ (UniProt P13631 1-454, limits assumed)
T3 construct: mature; In vitro translated
T3 sequence (looked up): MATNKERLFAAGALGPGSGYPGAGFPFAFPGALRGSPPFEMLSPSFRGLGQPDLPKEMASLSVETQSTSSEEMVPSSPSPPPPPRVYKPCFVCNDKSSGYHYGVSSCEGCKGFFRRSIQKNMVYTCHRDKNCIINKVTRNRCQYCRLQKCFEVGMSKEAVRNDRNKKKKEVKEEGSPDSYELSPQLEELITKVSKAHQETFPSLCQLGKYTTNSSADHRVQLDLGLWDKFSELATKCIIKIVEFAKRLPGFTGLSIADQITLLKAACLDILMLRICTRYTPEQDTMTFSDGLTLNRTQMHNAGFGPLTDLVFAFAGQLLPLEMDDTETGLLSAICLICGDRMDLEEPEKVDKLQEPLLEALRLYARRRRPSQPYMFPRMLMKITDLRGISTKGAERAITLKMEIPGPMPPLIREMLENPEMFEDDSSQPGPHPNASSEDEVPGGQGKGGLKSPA

T4: estrogen receptor (ER) (UniProt P03372 1-595, limits assumed)
T4 construct: In vitro translated; 35S-labelled in the column experiment
T4 sequence (looked up): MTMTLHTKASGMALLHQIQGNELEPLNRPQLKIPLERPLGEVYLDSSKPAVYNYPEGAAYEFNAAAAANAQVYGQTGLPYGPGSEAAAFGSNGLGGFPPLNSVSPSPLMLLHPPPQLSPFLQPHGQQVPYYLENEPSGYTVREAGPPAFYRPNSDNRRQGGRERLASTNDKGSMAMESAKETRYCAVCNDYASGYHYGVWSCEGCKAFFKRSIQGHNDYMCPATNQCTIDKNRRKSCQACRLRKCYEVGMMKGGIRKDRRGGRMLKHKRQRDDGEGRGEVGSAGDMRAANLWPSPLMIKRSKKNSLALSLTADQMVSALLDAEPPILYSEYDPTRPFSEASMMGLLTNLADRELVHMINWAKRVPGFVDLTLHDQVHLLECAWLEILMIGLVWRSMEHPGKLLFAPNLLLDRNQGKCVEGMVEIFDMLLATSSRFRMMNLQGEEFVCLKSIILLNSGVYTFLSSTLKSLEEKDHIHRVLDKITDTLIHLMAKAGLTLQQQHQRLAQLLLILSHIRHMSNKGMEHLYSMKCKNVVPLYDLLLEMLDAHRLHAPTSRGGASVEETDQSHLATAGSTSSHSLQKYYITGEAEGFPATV

T5: retinoid x receptor (RXRα) (human, UniProt P19793 1-462)
T5 construct: mature; In vitro translated full length receptor; 35S-labelled in the column and immunoprecipitation experiments
T5 sequence (looked up): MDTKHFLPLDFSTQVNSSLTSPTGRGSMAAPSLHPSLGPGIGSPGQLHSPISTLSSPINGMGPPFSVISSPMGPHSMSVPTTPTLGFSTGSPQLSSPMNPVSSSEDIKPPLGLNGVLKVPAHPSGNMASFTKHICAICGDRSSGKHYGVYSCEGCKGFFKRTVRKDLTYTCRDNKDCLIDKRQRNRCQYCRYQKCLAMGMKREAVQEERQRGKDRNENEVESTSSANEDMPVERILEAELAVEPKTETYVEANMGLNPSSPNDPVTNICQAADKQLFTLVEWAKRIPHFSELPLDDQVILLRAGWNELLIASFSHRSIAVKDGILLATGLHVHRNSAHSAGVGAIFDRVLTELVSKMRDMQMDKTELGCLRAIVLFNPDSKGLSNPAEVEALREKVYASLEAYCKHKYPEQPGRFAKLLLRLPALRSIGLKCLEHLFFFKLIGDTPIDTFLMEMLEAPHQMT

T6: FLAG-RXRα (human, UniProt P19793 1-462)
T6 construct: mature; in vitro translated; also called F-RXRα
T6 sequence: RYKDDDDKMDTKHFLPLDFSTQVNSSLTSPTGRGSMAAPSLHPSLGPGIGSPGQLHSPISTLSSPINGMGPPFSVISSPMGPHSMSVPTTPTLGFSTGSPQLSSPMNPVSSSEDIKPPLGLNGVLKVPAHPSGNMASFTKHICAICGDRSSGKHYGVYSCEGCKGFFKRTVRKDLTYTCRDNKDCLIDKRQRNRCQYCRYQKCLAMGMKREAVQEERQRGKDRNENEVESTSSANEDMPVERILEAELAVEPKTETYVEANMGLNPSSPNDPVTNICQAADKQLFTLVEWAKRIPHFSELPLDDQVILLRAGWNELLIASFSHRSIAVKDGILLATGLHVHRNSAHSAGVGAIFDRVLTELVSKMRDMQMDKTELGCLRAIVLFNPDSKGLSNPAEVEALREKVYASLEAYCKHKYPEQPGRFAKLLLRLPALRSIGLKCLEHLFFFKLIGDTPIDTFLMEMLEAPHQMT

B1: RXRαm2 (receptor, human, UniProt P19793 1-387, looked up)
chain: MDTKHFLPLDFSTQVNSSLTSPTGRGSMAAPSLHPSLGPGIGSPGQLHSPISTLSSPINGMGPPFSVISSPMGPHSMSVPTTPTLGFSTGSPQLSSPMNPVSSSEDIKPPLGLNGVLKVPAHPSGNMASFTKHICAICGDRSSGKHYGVYSCEGCKGFFKRTVRKDLTYTCRDNKDCLIDKRQRNRCQYCRYQKCLAMGMKREAVQEERQRGKDRNENEVESTSSANEDMPVERILEAELAVEPKTETYVEANMGLNPSSPNDPVTNICQAADKQLFTLVEWAKRIPHFSELPLDDQVILLRAGWNELLIASFSHRSIAVKDGILLATGLHVHRNSAHSAGVGAIFDRVLTELVSKMRDMQMDKTELGCLRAIVLFNPDSKGLSNPA
notes: range: lacks the carboxyterminal 75 amino acids; In vitro translated deletion mutant
B2: glutathione S-transferase-RARγ fusion protein (bacterially expressed FLAG-RARγ fusion protein) (other)
chain: RYKDDDDKMATNKERLFAAGALGPGSGYPGAGFPFAFPGALRGSPPFEMLSPSFRGLGQPDLPKEMASLSVETQSTSSEEMVPSSPSPPPPPRVYKPCFVCNDKSSGYHYGVSSCEGCKGFFRRSIQKNMVYTCHRDKNCIINKVTRNRCQYCRLQKCFEVGMSKEAVRNDRNKKKKEVKEEGSPDSYELSPQLEELITKVSKAHQETFPSLCQLGKYTTNSSADHRVQLDLGLWDKFSELATKCIIKIVEFAKRLPGFTGLSIADQITLLKAACLDILMLRICTRYTPEQDTMTFSDGLTLNRTQMHNAGFGPLTDLVFAFAGQLLPLEMDDTETGLLSAICLICGDRMDLEEPEKVDKLQEPLLEALRLYARRRRPSQPYMFPRMLMKITDLRGISTKGAERAITLKMEIPGPMPPLIREMLENPEMFEDDSSQPGPHPNASSEDEVPGGQGKGGLKSPA
notes: mature; FLAG-RARγ cDNA cloned in frame into pGex-2T, expressed in bacteria, purified on glutathione sepharose 4B; also called RARγ-glutathione transferase fusion protein; glutathione transferase-RARγ; not shown: glutathione S-transferase encoded by the expression vector pGEX-2T (Pharmacia); vector linker not described
B3: RXRαm7 (receptor, human, UniProt P19793 1-462, looked up)
chain: MDTKHFLPLDFSTQVNSSLTSPTGRGSMAAPSLHPSLGPGIGSPGQLHSPISTLSSPINGMGPPFSVISSPMGPHSMSVPTTPTLGFSTGSPQLSSPMNPVSSSEDIKPPLGLNGVLKVPAHPSGNMASFTKHICAICGDRSSGKHYGVYSCEGCKGFFKRTVRKDLTYTCRDNKDCLIDKRQRNRCQYCRYQKCLATGLHVHRNSAHSAGVGAIFDRVLTELVSKMRDMQMDKTELGCLRAIVLFNPDSKGLSNPAEVEALREKVYASLEAYCKHKYPEQPGRFAKLLLRLPALRSIGLKCLEHLFFFKLIGDTPIDTFLMEMLEAPHQMT
notes: In vitro translated deletion mutant
B4: thyroid hormone receptor TRβ (receptor, human, UniProt P10828 1-461, looked up)
chain: MTPNSMTENGLTAWDKPKHCPDREHDWKLVGMSEACLHRKSHSERRSTLKNEQSSPHLIQTTWTSSIFHLDHDDVNDQSVSSAQTFQTEEKKCKGYIPSYLDKDELCVVCGDKATGYHYRCITCEGCKGFFRRTIQKNLHPSYSCKYEGKCVIDKVTRNQCQECRFKKCIYVGMATDLVLDDSKRLAKRKLIEENREKRRREELQKSIGHKPEPTDEEWELIKTVTEAHVATNAQGSHWKQKRKFLPEDIGQAPIVNAPEGGKVDLEAFSHFTKIITPAITRVVDFAKKLPMFCELPCEDQIILLKGCCMEIMSLRAAVRYDPESETLTLNGEMAVTRGQLKNGGLGVVSDAIFDLGMSLSSFNLDDTEVALLQAVLLMSSDRPGLACVERIEKYQDSFLLAFEHYINYRKHHVTHFWPKLLMKVTDLRMIGACHASRFLHMKVECPTELFPPLFLEVFED
notes: mature; In vitro translated; also called TR-B; c-erb-A-B

Tests used:
[1] = system: RXRα-TRα and RXRα-RARα complexes; experiment: Gel retardation assay of RXRα interaction with TRα or RARα on palindromic TRE; assay type: binding
[2] = biological target: B4; experiment: gel retardation, 32P palindromic TRE (data not shown)
[3] = biological target: T1, retinoic acid receptor RARα; experiment: as above
[4] = biological target: T2, retinoic acid receptor RARβ; experiment: as above
[5] = biological target: T3, retinoic acid receptor RARγ; experiment: gel retardation, 32P palindromic TRE, in vitro translated receptors
Protocol: (§1) After incubation at room temperature for 45 minutes, the effect of antibody on slow migrating complexes was analyzed by gel retardation using ^32-labelled palindromic TRE as a probe. As a control, receptor mixtures were also incubated with preimmune serum (NI).
(§2) In vitro translated receptor protein (1 to 5 µl depending on the translation efficiency) was incubated with the ^32P-labeled oligonucleotides in a 20-µl reaction mixture containing 10 mM hepes buffer, pH 7.9, 50 mM KCl, 1 mM DTT, 2.5 mM MgCl, 10% glycerol, and 1 µg of poly(dI-dC) at 25° C. for 20 minutes. In general, relative low receptor concentration was used to obtain the clear effect of heterodimer formation. The reaction mixture was then loaded on a 5% nondenaturing polyacrylamide gel containing 0.5× TBE (1×TBE=0.089 M TRIS-borate, 0.089 M boric acid, and 0.002 M EDTA). […] When antibody was used, 1 µl of the antiserum was incubated with the specific translation products at room temperature for 45 minutes before performing the experiments described above.

estrogen receptor (ER) = biological target: T4, estrogen receptor (ER); experiment: glutathione sepharose affinity column, 35S-labelled ER, no DNA
[6] = biological target: T5, retinoid x receptor (RXRα); experiment: gel retardation, 32P palindromic TRE, in vitro translated receptors
Protocol: as §1, §2

FLAG-RXRα = biological target: T6, FLAG-RXRα; experiment: as above
Protocol: as §1, §2

binding result [2] | binding result [3] | binding result [4] | binding result [5] | Molecule | other results
– | – | – | – | N[C@@H](Cc1cc(I)c(Oc2ccc(O)c(I)c2)c(I)c1)C(=O)O [T3] | effect on migration rate of the TRα complex ([1]; T3 10^−7 M): slightly increases the migration rate; influence of hormone on formation of slow migrating complexes ([1]; hormone 10^−7 M, TRα and RARα with RXRα): no clear influence
no binding | no binding | no binding | no binding | B1 | –
– | – | – | – | B2 | binding result (estrogen receptor (ER)): no binding
no binding | no binding | no binding | no binding | B3 | –
– | – | – | – | B4 | binding result [6]: binds; binding result (FLAG-RXRα): binds
